Data from article PMC3539201.

Key:
[1] = biological target: torsinA (endogenous, mouse fibroblasts) (mouse (endogenous in MFs)) (UniProt Q9ER39); test: co-IP
[2] = biological target: YFP-human-nesprin-3 (human) (UniProt Q6ZMZ3); test: co-IP
Sequence of YFP-human-nesprin-3 (human) (Q6ZMZ3 whole entry): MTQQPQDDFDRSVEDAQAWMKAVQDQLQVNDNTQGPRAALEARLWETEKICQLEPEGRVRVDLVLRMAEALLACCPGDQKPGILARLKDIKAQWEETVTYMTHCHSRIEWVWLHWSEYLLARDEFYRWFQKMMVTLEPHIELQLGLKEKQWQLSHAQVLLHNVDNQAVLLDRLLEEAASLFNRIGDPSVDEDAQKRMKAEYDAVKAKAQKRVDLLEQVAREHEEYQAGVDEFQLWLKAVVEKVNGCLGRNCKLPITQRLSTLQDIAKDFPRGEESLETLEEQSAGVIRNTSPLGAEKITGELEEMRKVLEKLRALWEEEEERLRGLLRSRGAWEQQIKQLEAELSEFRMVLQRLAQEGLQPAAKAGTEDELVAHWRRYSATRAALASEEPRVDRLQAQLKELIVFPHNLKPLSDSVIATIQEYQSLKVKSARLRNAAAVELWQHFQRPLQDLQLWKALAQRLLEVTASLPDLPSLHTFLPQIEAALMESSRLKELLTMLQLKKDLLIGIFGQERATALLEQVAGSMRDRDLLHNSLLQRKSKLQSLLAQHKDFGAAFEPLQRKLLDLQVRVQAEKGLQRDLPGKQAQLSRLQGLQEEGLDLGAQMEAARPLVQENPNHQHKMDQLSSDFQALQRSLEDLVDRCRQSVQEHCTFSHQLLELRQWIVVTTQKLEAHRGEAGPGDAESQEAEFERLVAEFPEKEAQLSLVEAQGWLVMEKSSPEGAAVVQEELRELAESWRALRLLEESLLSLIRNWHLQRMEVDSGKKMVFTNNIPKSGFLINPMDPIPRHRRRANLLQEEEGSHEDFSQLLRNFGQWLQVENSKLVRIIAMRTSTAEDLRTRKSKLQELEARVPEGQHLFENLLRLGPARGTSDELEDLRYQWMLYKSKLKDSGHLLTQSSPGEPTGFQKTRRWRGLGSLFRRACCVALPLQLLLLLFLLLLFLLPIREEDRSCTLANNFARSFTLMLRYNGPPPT

Sequence of torsinAΔE (human, expressed in 293T cells) (O14656 21-332, stated change not applied): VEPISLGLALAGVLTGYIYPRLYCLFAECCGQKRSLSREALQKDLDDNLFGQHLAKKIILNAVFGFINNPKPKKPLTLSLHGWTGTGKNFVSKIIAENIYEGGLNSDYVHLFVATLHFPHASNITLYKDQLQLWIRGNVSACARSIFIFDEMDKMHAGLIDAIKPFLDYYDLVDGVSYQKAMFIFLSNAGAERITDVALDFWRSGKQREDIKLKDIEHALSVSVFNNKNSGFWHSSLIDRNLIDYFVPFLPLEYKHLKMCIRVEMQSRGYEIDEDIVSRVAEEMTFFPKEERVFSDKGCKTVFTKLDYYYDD
Sequence of torsinA (endogenous, mouse fibroblasts) (mouse (endogenous in MFs)) (Q9ER39 21-333): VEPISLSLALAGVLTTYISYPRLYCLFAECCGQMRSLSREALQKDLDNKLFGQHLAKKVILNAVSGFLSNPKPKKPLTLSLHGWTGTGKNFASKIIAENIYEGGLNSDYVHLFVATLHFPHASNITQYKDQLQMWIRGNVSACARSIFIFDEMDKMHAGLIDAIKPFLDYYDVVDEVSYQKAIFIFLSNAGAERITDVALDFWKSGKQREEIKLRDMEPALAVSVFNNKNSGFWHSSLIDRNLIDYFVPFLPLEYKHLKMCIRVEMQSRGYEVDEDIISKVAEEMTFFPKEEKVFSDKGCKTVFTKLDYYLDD

percentage immunoprecipitated from lysates [1] [%] | percentage immunoprecipitated with YFP-nesprin-3 in the presence of ATP [2] [%] | Substance
7 |  | plectin (endogenous, mouse fibroblasts), Q9QXS1 1-4691
 | 25 | torsinAΔE (human, expressed in 293T cells) (from UniProt O14656 21-332) (natural protein)
